# Patent US20040260068A1 (published 2004)
# Several values for one entry are separate records, joined by “and”; a condition that tells them apart may be missing. Identical values can stand only once.
# Tests used:
# human IL-12 [1] = target: T1, human IL-12 (human, UniProt P29459 23-219; P29460 23-328); experiment: competition ELISA on coated human IL-12; competitor of biotinylated ChDD2
# T1 construct: also called human IL-12 p70 heterodimer; IL-12 p75
# T1 sequence (looked up) 1: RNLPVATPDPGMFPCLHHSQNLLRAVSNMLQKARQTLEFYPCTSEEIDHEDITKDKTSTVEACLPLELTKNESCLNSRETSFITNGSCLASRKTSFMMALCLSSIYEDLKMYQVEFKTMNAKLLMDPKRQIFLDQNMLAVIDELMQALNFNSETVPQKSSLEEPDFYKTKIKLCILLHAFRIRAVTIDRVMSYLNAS
# T1 sequence (looked up) 2: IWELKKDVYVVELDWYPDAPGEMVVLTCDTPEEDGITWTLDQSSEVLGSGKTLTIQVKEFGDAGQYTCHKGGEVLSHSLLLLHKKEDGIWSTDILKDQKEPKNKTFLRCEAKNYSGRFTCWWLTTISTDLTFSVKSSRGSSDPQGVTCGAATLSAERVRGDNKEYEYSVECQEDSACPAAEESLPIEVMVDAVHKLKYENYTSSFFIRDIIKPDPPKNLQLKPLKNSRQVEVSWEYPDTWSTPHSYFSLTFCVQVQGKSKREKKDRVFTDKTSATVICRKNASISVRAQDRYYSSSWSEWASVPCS
# Method: (§1) ELISA plates were incubated at room temperature for 2 hr. After washing the wells with Washing Buffer, 0.5 μg/ml HRP-conjugated streptavidin (Pierce) was added to each well. Color development was performed with TMB substrate (Kirkegaard & Perry Laboratories).
# mouse IL-12 [2] = target: T2, mouse IL-12 (mouse, UniProt P43431 23-215; P43432 23-335); experiment: competition ELISA on coated mouse IL-12; competitor of biotinylated ChDD2
# T2 sequence (looked up) 1: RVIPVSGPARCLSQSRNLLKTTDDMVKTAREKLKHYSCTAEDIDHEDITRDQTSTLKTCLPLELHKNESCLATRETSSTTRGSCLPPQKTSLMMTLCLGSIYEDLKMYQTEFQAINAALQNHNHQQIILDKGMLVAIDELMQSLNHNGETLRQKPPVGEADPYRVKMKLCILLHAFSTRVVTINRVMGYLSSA
# T2 sequence (looked up) 2: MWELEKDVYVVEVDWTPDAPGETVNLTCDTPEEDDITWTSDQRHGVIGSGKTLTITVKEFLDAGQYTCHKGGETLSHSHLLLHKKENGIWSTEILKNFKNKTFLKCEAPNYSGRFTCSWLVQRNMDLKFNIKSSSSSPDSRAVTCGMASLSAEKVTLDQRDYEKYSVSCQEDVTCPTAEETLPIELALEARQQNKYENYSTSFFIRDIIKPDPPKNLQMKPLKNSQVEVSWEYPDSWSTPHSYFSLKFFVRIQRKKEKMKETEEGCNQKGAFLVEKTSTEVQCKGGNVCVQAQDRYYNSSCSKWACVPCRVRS
# Method: as §1, with “MaxiSorp plates (Nalge Nunc, Rochester N.Y.) were coated with 0.1 μg/ml human or mouse IL-12. […] ELISA” for “ELISA”
# chicken lysozyme = target: T3, chicken lysozyme (chicken, UniProt P00698 19-147); experiment: ELISA on coated protein
# T3 construct: Control antigen; also called hen egg lysozyme
# T3 sequence (P00698 19-147): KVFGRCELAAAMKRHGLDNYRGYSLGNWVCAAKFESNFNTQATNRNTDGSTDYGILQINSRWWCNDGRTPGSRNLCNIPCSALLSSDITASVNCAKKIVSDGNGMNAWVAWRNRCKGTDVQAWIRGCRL
# Method: (§2) For binding to various proteins, ELISA plates were coated with chicken lysozyme (Sigma), human globin (Sigma), bovine albumin (Sigma), and concanavalin A (Pharmacia) as well as human and mouse IL-12 (R&D) at 0.1 μg/ml in 0.2 M sodium carbonate buffer (pH 9.4) and blocked with SuperBlock buffer (Pierce).
# bovine albumin = target: T4, bovine albumin (bovine, UniProt P02769 25-607); experiment: ELISA on coated protein
# T4 construct: Control antigen
# T4 sequence (P02769 25-607 limits assumed): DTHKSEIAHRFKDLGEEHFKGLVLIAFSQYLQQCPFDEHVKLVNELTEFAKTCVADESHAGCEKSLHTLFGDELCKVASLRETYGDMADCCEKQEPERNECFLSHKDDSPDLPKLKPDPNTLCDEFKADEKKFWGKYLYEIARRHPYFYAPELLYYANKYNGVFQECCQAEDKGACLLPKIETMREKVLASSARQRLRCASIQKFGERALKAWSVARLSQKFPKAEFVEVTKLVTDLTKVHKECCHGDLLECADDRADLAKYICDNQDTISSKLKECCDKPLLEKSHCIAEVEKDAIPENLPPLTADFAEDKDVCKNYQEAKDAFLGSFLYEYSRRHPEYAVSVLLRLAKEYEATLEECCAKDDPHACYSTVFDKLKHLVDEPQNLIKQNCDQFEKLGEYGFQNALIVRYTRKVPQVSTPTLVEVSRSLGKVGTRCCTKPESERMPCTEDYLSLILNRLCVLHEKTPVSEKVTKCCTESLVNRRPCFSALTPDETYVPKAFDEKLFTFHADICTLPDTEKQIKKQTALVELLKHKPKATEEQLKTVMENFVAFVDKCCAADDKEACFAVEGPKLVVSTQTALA
# Method: as §2
# concanavalin A = target: T5, concanavalin A (UniProt P02866 30-281); experiment: ELISA on coated protein
# T5 construct: Control antigen
# Method: as §2
# human IL-12 [3] = target: T1, human IL-12; experiment: competition ELISA on coated human IL-12
# Method: as §1
# mouse IL-12 [4] = target: T2, mouse IL-12; experiment: competition ELISA on coated mouse IL-12
# Method: (§3) MaxiSorp plates were coated with 100 μl of 0.1 μg/ml human or mouse IL-12 (R&D) and blocked with Superblock blocking buffer. […] As a background control, 100 μl of ELISA Buffer was used. ELISA plates were incubated at room temperature for 2 hr. After washing the wells with Washing Buffer (PBS containing 0.1 % Tween 20), 100 μl of 1 μg/ml HRP-conjugated streptavidin (Pierce) in ELISA buffer was added to each well. ELISA plates were incubated at room temperature for 30 min and washed with Washing Buffer. For color development, 100 μI/well of ABTS substrate was added. Color development was stopped by adding 100 μl/well of 2% oxalic acid. Absorbance was read at 415 nm.
# mouse IL-12 [5] = target: T2, mouse IL-12; experiment: competitive binding assay (competition ELISA)
# Method: as §3
# human IL-12 [6] = target: T1, human IL-12; experiment: competition ELISA on coated human IL-12; competitor of biotinylated humanized B1
# Method: as §3
# mouse IL-12 [7] = target: T2, mouse IL-12; experiment: competition ELISA on coated mouse IL-12; competitor of biotinylated humanized B1
# Method: as §3
binder,measurement,setting,value
"chicken-human chimeric anti-IL-12 antibody DD2 (antibody, V domains shown, made in Sp2/0; also called ChDD2; chimeric DD2) VH: AVTLDESGGGLQTPGGGLSLVCKASGFDFSNYQLQWVRQAPGKGLEWVGGIGSSGSSTYYGAAVKGRATISRDNGQSTVRLQLNNLRAEDTGTYYCTRGVSPYSCWYAGRTSYTCHAYTAGSIDAWGHGTEVIVSS VL: ALTQPASVSANPGETVKITCPGGGIYAGRYYGYGWFQQKSPGSAPVTVIYSNDKRPSDIPSRFSGSASGSTATLTITGVQADDEAVYFCGSHDSNVGVFGAGTTLTVL",IC50,human IL-12 [1],4 µg/mL
same,IC50,mouse IL-12 [2],2.4 µg/mL
"humanized B1 IgG1/λ monoclonal antibody (antibody, V domains shown, made in Sp2/0; also called HuB1) VH: EVQLVESGGGLVQPGGSLRLSCAASGFTFSSYSMLWVRQAPGKGLEYVAEITNTGRTRRYGAAVKGRATISRDNAKNTVYLQMNSLRAEDTAVYYCARSSVYSCSYGWCAGNINAWGQGTLVTVSS VL: SSELTQPPSVSVALGQTVRITCSGGYSGYYGWYQQKPGQAPVTVIYDNTRRPSDIPSRFSGSKSGSTATLTITGVQAEDEADYYCGTWDSSRVGIFGGGTKLTVL",binding result,chicken lysozyme,no binding (tested: 0.01 µg/ml antibody)
same,binding result,bovine albumin,no binding (tested: 0.01 µg/ml antibody)
same,binding result,concanavalin A,no binding (tested: 0.01 µg/ml antibody)
same,fold better binding than chimeric B1,human IL-12 [3],~1.4 fold
same,fold decrease in relative binding against chimeric B1 (fold),mouse IL-12 [4],~2.1 fold
same,fold better affinity than chimeric B1,mouse IL-12 [5],~2 fold
same,IC50,human IL-12 [6],5.8 µg/mL
same,IC50,mouse IL-12 [7],6.2 µg/mL
"humanized DD2 IgG1/λ monoclonal antibody (antibody, V domains shown, also called HuDD2; wild-type HuDD2) VH: EVQLVESGGGLVQPGGSLRLSCAASGFDFSNYQLQWVRQAPGKGLEWVGGIGSSGSSTYYGAAVKGRATISRDNAKNSVYLQMNSLRAEDTAVYYCTRGVSPYSCWYAGRTSYTCHAYTAGSIDAWGQGTLVTVSS VL: SSELTQDPAVSVALGQTVRITCPGGGIYAGRYYGYGWFQQKPGQAPVTVIYSNDKRPSDIPSRFSGSASGSTASLTITGAQAEDEADYYCGSHDSNVGVFGGGTKLTVL",IC50,human IL-12 [1],4.2 µg/mL and 3.5 µg/mL
same,IC50,mouse IL-12 [2],2.4 µg/mL
"HuDD2 Vλ T46L mutant (antibody, IgG1, V domains shown, IgG1/λ as HuDD2; Kabat numbering) VH: EVQLVESGGGLVQPGGSLRLSCAASGFDFSNYQLQWVRQAPGKGLEWVGGIGSSGSSTYYGAAVKGRATISRDNAKNSVYLQMNSLRAEDTAVYYCTRGVSPYSCWYAGRTSYTCHAYTAGSIDAWGQGTLVTVSS VL: SSELTQDPAVSVALGQTVRITCPGGGIYAGRYYGYGWFQQKPGQAPVLVIYSNDKRPSDIPSRFSGSASGSTASLTITGAQAEDEADYYCGSHDSNVGVFGGGTKLTVL",fold reduction of binding affinity against wild-type HuDD2,human IL-12 [3],4.6 fold
same,IC50,human IL-12 [1],16.1 µg/mL
"HuDD2 Vλ S69N mutant (antibody, IgG1, V domains shown, IgG1/λ as HuDD2; Kabat numbering) VH: EVQLVESGGGLVQPGGSLRLSCAASGFDFSNYQLQWVRQAPGKGLEWVGGIGSSGSSTYYGAAVKGRATISRDNAKNSVYLQMNSLRAEDTAVYYCTRGVSPYSCWYAGRTSYTCHAYTAGSIDAWGQGTLVTVSS VL: SSELTQDPAVSVALGQTVRITCPGGGIYAGRYYGYGWFQQKPGQAPVTVIYSNDKRPSDIPSRFSGSASGNTASLTITGAQAEDEADYYCGSHDSNVGVFGGGTKLTVL",IC50,human IL-12 [1],4.3 µg/mL
"HuDD2 VH T93A mutant (antibody, IgG1, name in Kabat numbering, V domains shown, IgG1/λ as HuDD2; Kabat numbering) VH: EVQLVESGGGLVQPGGSLRLSCAASGFDFSNYQLQWVRQAPGKGLEWVGGIGSSGSSTYYGAAVKGRATISRDNAKNSVYLQMNSLRAEDTAVYYCARGVSPYSCWYAGRTSYTCHAYTAGSIDAWGQGTLVTVSS VL: SSELTQDPAVSVALGQTVRITCPGGGIYAGRYYGYGWFQQKPGQAPVTVIYSNDKRPSDIPSRFSGSASGSTASLTITGAQAEDEADYYCGSHDSNVGVFGGGTKLTVL",IC50,human IL-12 [1],3.3 µg/mL
"HuDD2 VH A67F mutant (antibody, IgG1, name in Kabat numbering, V domains shown, IgG1/λ as HuDD2) VH: EVQLVESGGGLVQPGGSLRLSCAASGFDFSNYQLQWVRQAPGKGLEWVGGIGSSGSSTYYGAAVKGRFTISRDNAKNSVYLQMNSLRAEDTAVYYCTRGVSPYSCWYAGRTSYTCHAYTAGSIDAWGQGTLVTVSS VL: SSELTQDPAVSVALGQTVRITCPGGGIYAGRYYGYGWFQQKPGQAPVTVIYSNDKRPSDIPSRFSGSASGSTASLTITGAQAEDEADYYCGSHDSNVGVFGGGTKLTVL",IC50,human IL-12 [1],2.1 µg/mL
"HuDD2 VH V78L mutant (antibody, IgG1, name in Kabat numbering, V domains shown, IgG1/λ as HuDD2; H78 (Kabat) is the position named as the one tested; also called V79L) VH: EVQLVESGGGLVQPGGSLRLSCAASGFDFSNYQLQWVRQAPGKGLEWVGGIGSSGSSTYYGAAVKGRATISRDNAKNSLYLQMNSLRAEDTAVYYCTRGVSPYSCWYAGRTSYTCHAYTAGSIDAWGQGTLVTVSS VL: SSELTQDPAVSVALGQTVRITCPGGGIYAGRYYGYGWFQQKPGQAPVTVIYSNDKRPSDIPSRFSGSASGSTASLTITGAQAEDEADYYCGSHDSNVGVFGGGTKLTVL",fold reduction of binding affinity against wild-type HuDD2,human IL-12 [3],2 fold
same,IC50,human IL-12 [1],7 µg/mL
"HuDD2 Vλ A66S mutant (antibody, IgG1, V domains shown, IgG1/λ as HuDD2; Kabat numbering) VH: EVQLVESGGGLVQPGGSLRLSCAASGFDFSNYQLQWVRQAPGKGLEWVGGIGSSGSSTYYGAAVKGRATISRDNAKNSVYLQMNSLRAEDTAVYYCTRGVSPYSCWYAGRTSYTCHAYTAGSIDAWGQGTLVTVSS VL: SSELTQDPAVSVALGQTVRITCPGGGIYAGRYYGYGWFQQKPGQAPVTVIYSNDKRPSDIPSRFSGSSSGSTASLTITGAQAEDEADYYCGSHDSNVGVFGGGTKLTVL",IC50,human IL-12 [1],3.4 µg/mL
"chimeric B1 IgG1/λ antibody (chicken-human chimeric anti-IL-12 antibody B1) (antibody, V domains shown, made in Sp2/0; also called ChB1) VH: AVTLDESGGGLQTPGGALSLVCKASGFTFSSYSMLWVRQAPGKGLEYVAEITNTGRTRRYGAAVKGRATISRDNGQSTVRLQLNNLRAEDTGTYYCARSSVYSCSYGWCAGNINAWGHGTEVIVSS VL: ALTQPASVSANLGGTVKITCSGGYSGYYGWYQQKSPGSAPVTVIYDNTRRPSDIPSRFSGSKSGSTATLTITGVQADDEAVYFCGTWDSSRVGIFGAGTTLTVL",binding result,chicken lysozyme,no binding (tested: 0.01 µg/ml antibody)
same,binding result,bovine albumin,no binding (tested: 0.01 µg/ml antibody)
same,binding result,concanavalin A,no binding (tested: 0.01 µg/ml antibody)
same,IC50,human IL-12 [6],8.3 µg/mL
same,IC50,mouse IL-12 [7],13 µg/mL
